T1: acyl-ACP4(4) adduct 4c ((2S,3S)-diketide on ACP4(4)), Q03132
T1 chain: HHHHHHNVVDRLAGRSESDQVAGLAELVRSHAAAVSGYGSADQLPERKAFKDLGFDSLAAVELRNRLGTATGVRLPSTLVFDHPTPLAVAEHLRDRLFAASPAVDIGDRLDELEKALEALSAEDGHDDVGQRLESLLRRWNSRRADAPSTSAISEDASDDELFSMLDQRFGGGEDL

T2: acyl-ACP4(4) adduct 4d ((2R,3R)-diketide on ACP4(4)), Q03132
T2 chain: T1 chain

T3: acyl-ACP4(4) adduct 4a ((2S,3R)-diketide on ACP4(4)), Q03132
T3 chain: T1 chain

T4: acyl-ACP4(4) adduct 4b ((2R,3S)-diketide on ACP4(4)), Q03132
T4 chain: T1 chain

B1: (5)M2+TE (N-ERL-M2+TE; plasmid pRSG64) (protein)
chain: MSGDNGMTEEKLRRYLKRTVTELDSVTARLREVEHRAGEIAIVGMACRLPGEVDSPERLWELITSGRDSAAEVPDDRGWVPDELMASDAAGTRAHGNFMAGAGDFDAAFFGISPREALAMDPQQRQALETTWEALESAGIPPETLRGSDTGVFVGMSHQGYATGRPRPEDGVDGYLLTGNTASVASGRIAYVLGLEGPALTVDTACSSSLVALHTACGSLRDGDCGLAVAGGVSVMAGPEVFTEFSRQGALSPDGRCKPFSDEADGFGLGEGSAFVVLQRLSDARREGRRVLGVVAGSAVNQDGASNGLSAPSGVAQQRVIRRAWARAGITGADVAVVEAHGTGTRLGDPVEASALLATYGKSRGSSGPVLLGSVKSNIGHAQAAAGVAGVIKVLLGLERGVVPPMLCRGERSGLIDWSSGEIELADGVREWSPAADGVRRAGVSAFGVSGTNAHVIIAEPPEPEPVPQPRRMLPATGVVPVVLSARTGAALRAQAGRLADHLAAHPGIAPADVSWTMARARQHFEERAAVLAADTAEAVHRLRAVADGAVVPGVVTGSASDGGSVFVFPGQGAQWEGMARELLPVPVFAESIAECDAVLSEVAGFSVSEVLEPRPDAPSLERVDVVQPVLFAVMVSLARLWRACGAVPSAVIGHSQGEIAAAVVAGALSLEDGMRVVARRSRAVRAVAGRGSMLSVRGGRSDVEKLLADDSWTGRLEVAAVNGPDAVVVAGDAQAAREFLEYCEGVGIRARAIPVDYASHTAHVEPVRDELVQALAGITPRRAEVPFFSTLTGDFLDGTELDAGYWYRNLRHPVEFHSAVQALTDQGYATFIEVSPHPVLASSVQETLDDAESDAAVLGTLERDAGDADRFLTALADAHTRGVAVDWEAVLGRAGLVDLPGYPFQGKRFWLLPDRTTPRDELDGWFYRVDWTEVPRSEPAALRGRWLVVVPEGHEEDGWTVEVRSALAEAGAEPEVTRGVGGLVGDCAGVVSLLALEGDGAVQTLVLVRELDAEGIDAPLWTVTFGAVDAGSPVARPDQAKLWGLGQVASLERGPRWTGLVDLPHMPDPELRGRLTAVLAGSEDQVAVRADAVRARRLSPAHVTATSEYAVPGGTILVTGGTAGLGAEVARWLAGRGAEHLALVSRRGPDTEGVGDLTAELTRLGARVSVHACDVSSREPVRELVHGLIEQGDVVRGVVHAAGLPQQVAINDMDEAAFDEVVAAKAGGAVHLDELCSDAELFLLFSSGAGVWGSARQGAYAAGNAFLDAFARHRRGRGLPATSVAWGLWAAGGMTGDEEAVSFLRERGVRAMPVPRALAALDRVLASGETAVVVTDVDWPAFAESYTAARPRPLLDRIVTTAPSERAGEPETESLRDRLAGLPRAERTAELVRLVRTSTATVLGHDDPKAVRATTPFKELGFDSLAAVRLRNLLNAATGLRLPSTLVFDHPNASAVAGFLDICCAGTAAISGPHEFTRLAGALRGIAPVRAVPQPGYEEGEPLPSSMAAVAAVQADAVIRTQGDKPFVVAGHSAGALMAYALATELLDRGHPPRGVVLIDVYPPGHQDAMNAWLEELTATLFDRETVRMDDTRLTALGAYDRLTGQWRPRETGLPTLLVSAGEPMGPWPDDSWKPTWPFEHDTVAVPGDHFTMVQEHADAIARHIDAWHHHHHH
B2: (5)M3+TE (derivative of M3+TE where the natural N-terminal linker has been replaced with the N-terminal linker of module 5 of DEBS; plasmid pST132) (protein)
chain: MSGDNGMTEEKLRRYLKRTVTELDSVTARLREVEHRAGEPIAIVSMACRLPGGVNTPQRLWELLREGGETLSGFPTDRGWDLARLHHPDPDNPGTSYVDKGGFLDDAAGFDAEFFGVSPREAAAMDPQQRLLLETSWELVENAGIDPHSLRGTATGVFLGVAKFGYGEDTAAAEDVEGYSVTGVAPAVASGRISYTMGLEGPSISVDTACSSSLVALHLAVESLRKGESSMAVVGGAAVMATPGVFVDFSRQRALAADGRSKAFGAGADGFGFSEGVTLVLLERLSEARRNGHEVLAVVRGSALNQDGASNGLSAPSGPAQRRVIRQALESCGLEPGDVDAVEAHGTGTALGDPIEANALLDTYGRDRDADRPLWLGSVKSNIGHTQAAAGVTGLLKVVLALRNGELPATLHVEEPTPHVDWSSGGVALLAGNQPWRRGERTRRARVSAFGISGTNAHVIVEEAPEREHRETTAHDGRPVPLVVSARTTAALRAQAAQIAELLERPDADLAGVGLGLATTRARHEHRAAVVASTREEAVRGLREIAAGAATADAVVEGVTEVDGRNVVFLFPGQGSQWAGMGAELLSSSPVFAGKIRACDESMAPMQDWKVSDVLRQAPGAPGLDRVDVVQPVLFAVMVSLAELWRSYGVEPAAVVGHSQGEIAAAHVAGALTLEDAAKLVVGRSRLMRSLSGEGGMAAVALGEAAVRERLRPWQDRLSVAAVNGPRSVVVSGEPGALRAFSEDCAAEGIRVRDIDVDYASHSPQIERVREELLETTGDIAPRPARVTFHSTVESRSMDGTELDARYWYRNLRETVRFADAVTRLAESGYDAFIEVSPHPVVVQAVEEAVEEADGAEDAVVVGSLHRDGGDLSAFLRSMATAHVSGVDIRWDVALPGAAPFALPTYPFQRKRYWLQPAAPAAASDELAYRVSWTPIEKPESGNLDGDWLVVTPLISPEWTEMLCEAINANGGRALRCEVDTSASRTEMAQAVAQAGTGFRGVLSLLSSDESACRPGVPAGAVGLLTLVQALGDAGVDAPVWCLTQGAVRTPADDDLARPAQTTAHGFAQVAGLELPGRWGGVVDLPESVDDAALRLLVAVLRGGGRAEDHLAVRDGRLHGRRVVRASLPQSGSRSWTPHGTVLVTGAASPVGDQLVRWLADRGAERLVLAGACPGDDLLAAVEEAGASAVVCAQDAAALREALGDEPVTALVHAGTLTNFGSISEVAPEEFAETIAAKTALLAVLDEVLGDRAVEREVYCSSVAGIWGGAGMAAYAAGSAYLDALAEHHRARGRSCTSVAWTPWALPGGAVDDGYLRERGLRSLSADRAMRTWERVLAAGPVSVAVADVDWPVLSEGFAATRPTALFAELAGRGGQAEAEPDSGPTGEPAQRLAGLSPDEQQENLLELVANAVAEVLGHESAAEINVRRAFSELGLDSLNAMALRKRLSASTGLRLPASLVFDHPTVTALAQHLRARLDSGTPAREASSALRDGYRQAGVSGRVRSYLDLLAGLSDFREHFDGSDGFSLDLVDMADGPGEVTVICCAGTAAISGPHEFTRLAGALRGIAPVRAVPQPGYEEGEPLPSSMAAVAAVQADAVIRTQGDKPFVVAGHSAGALMAYALATELLDRGHPPRGVVLIDVYPPGHQDAMNAWLEELTATLFDRETVRMDDTRLTALGAYDRLTGQWRPRETGLPTLLVSAGEPMGPWPDDSWKPTWPFEHDTVAVPGDHFTMVQEHADAIARHIDAWLGGGNSHHHHHH
B3: M3+TE (module 3 of DEBS with its own N-terminal linker and with the thioesterase fused to the C-terminus; plasmid pRSG34) (protein)
chain: MTDSEKVAEYLRRATLDLRAARQRIRELESDIAIVSMACRLPGGVNTPQRLWELLREGGETLSGFPTDRGWDLARLHHPDPDNPGTSYVDKGGFLDDAAGFDAEFFGVSPREAAAMDPQQRLLLETSWELVENAGIDPHSLRGTATGVFLGVAKFGYGEDTAAAEDVEGYSVTGVAPAVASGRISYTMGLEGPSISVDTACSSSLVALHLAVESLRKGESSMAVVGGAAVMATPGVFVDFSRQRALAADGRSKAFGAGADGFGFSEGVTLVLLERLSEARRNGHEVLAVVRGSALNQDGASNGLSAPSGPAQRRVIRQALESCGLEPGDVDAVEAHGTGTALGDPIEANALLDTYGRDRDADRPLWLGSVKSNIGHTQAAAGVTGLLKVVLALRNGELPATLHVEEPTPHVDWSSGGVALLAGNQPWRRGERTRRARVSAFGISGTNAHVIVEEAPEREHRETTAHDGRPVPLVVSARTTAALRAQAAQIAELLERPDADLAGVGLGLATTRARHEHRAAVVASTREEAVRGLREIAAGAATADAVVEGVTEVDGRNVVFLFPGQGSQWAGMGAELLSSSPVFAGKIRACDESMAPMQDWKVSDVLRQAPGAPGLDRVDVVQPVLFAVMVSLAELWRSYGVEPAAVVGHSQGEIAAAHVAGALTLEDAAKLVVGRSRLMRSLSGEGGMAAVALGEAAVRERLRPWQDRLSVAAVNGPRSVVVSGEPGALRAFSEDCAAEGIRVRDIDVDYASHSPQIERVREELLETTGDIAPRPARVTFHSTVESRSMDGTELDARYWYRNLRETVRFADAVTRLAESGYDAFIEVSPHPVVVQAVEEAVEEADGAEDAVVVGSLHRDGGDLSAFLRSMATAHVSGVDIRWDVALPGAAPFALPTYPFQRKRYWLQPAAPAAASDELAYRVSWTPIEKPESGNLDGDWLVVTPLISPEWTEMLCEAINANGGRALRCEVDTSASRTEMAQAVAQAGTGFRGVLSLLSSDESACRPGVPAGAVGLLTLVQALGDAGVDAPVWCLTQGAVRTPADDDLARPAQTTAHGFAQVAGLELPGRWGGVVDLPESVDDAALRLLVAVLRGGGRAEDHLAVRDGRLHGRRVVRASLPQSGSRSWTPHGTVLVTGAASPVGDQLVRWLADRGAERLVLAGACPGDDLLAAVEEAGASAVVCAQDAAALREALGDEPVTALVHAGTLTNFGSISEVAPEEFAETIAAKTALLAVLDEVLGDRAVEREVYCSSVAGIWGGAGMAAYAAGSAYLDALAEHHRARGRSCTSVAWTPWALPGGAVDDGYLRERGLRSLSADRAMRTWERVLAAGPVSVAVADVDWPVLSEGFAATRPTALFAELAGRGGQAEAEPDSGPTGEPAQRLAGLSPDEQQENLLELVANAVAEVLGHESAAEINVRRAFSELGLDSLNAMALRKRLSASTGLRLPASLVFDHPTVTALAQHLRICCAGTAAISGPHEFTRLAGALRGIAPVRAVPQPGYEEGEPLPSSMAAVAAVQADAVIRTQGDKPFVVAGHSAGALMAYALATELLDRGHPPRGVVLIDVYPPGHQDAMNAWLEELTATLFDRETVRMDDTRLTALGAYDRLTGQWRPRETGLPTLLVSAGEPMGPWPDDSWKPTWPFEHDTVAVPGDHFTMVQEHADAIARHIDAWHHHHHH

Legend:
[1] = molecular target: T1, acyl-ACP4(4) adduct 4c …
[2] = molecular target: T2, acyl-ACP4(4) adduct 4d …
[3] = molecular target: T3, acyl-ACP4(4) adduct 4a …
[4] = molecular target: T4, acyl-ACP4(4) adduct 4b …

Row | Protein | diketide incorporation from acyl-ACP (triketide lactone formation) [1] | diketide incorporation from acyl-ACP (triketide lactone formation) [2] | diketide incorporation from acyl-ACP (triketide lactone formation) [3] | diketide incorporation from acyl-ACP (triketide lactone formation) [4] | diketide incorporation from acyl-ACP (product formation) [1] | diketide incorporation from acyl-ACP (product formation) [2] | diketide incorporation from acyl-ACP (product formation) [3] | diketide incorporation from acyl-ACP (product formation) [4]
1 | B1 | 4c and 4d were also substrates for the three modules | 4c and 4d were also substrates for the three modules | Both 4a and 4b were accepted and extended by all three modules | Both 4a and 4b were accepted and extended by all three modules |  |  |  | 
2 | B2 |  |  |  |  | all four acyl-ACP adducts were observed to be substrates for (5)M3+TE | all four acyl-ACP adducts were observed to be substrates for (5)M3+TE | all four acyl-ACP adducts were observed to be substrates for (5)M3+TE | all four acyl-ACP adducts were observed to be substrates for (5)M3+TE
3 | B3 |  |  |  |  | no product formation was observed from the incubation of any of the acyl-ACP adducts with (3)M3+TE | no product formation was observed from the incubation of any of the acyl-ACP adducts with (3)M3+TE | no product formation was observed from the incubation of any of the acyl-ACP adducts with (3)M3+TE | no product formation was observed from the incubation of any of the acyl-ACP adducts with (3)M3+TE
